Data set [1] can be described thus: in vitro. The note with it: rat.
Experimental: Apelin peptides were spiked into freshly prepared mouse, rat, dog and human EDTA plasma to a final concentration of 5 μM. The plasma samples were then incubated at 37° C. over a period of 4 hr. Up to 8 time points were sampled to facilitate estimation of in vitro half life in plasma matrices. In a typical experiment, aliquot of 100 μL of plasma sample was taken from the incubation vial, followed by addition of 300 μL of MeOH containing internal standard. The quenched sample was centrifuged at 5500 g for 15 min after 15 min vortex in room temperature. The supernatant was then analyzed by high resolution LC-MS.
The target of data set [2] is T1, rat APJ receptor (Rattus norvegicus, UniProt Q9JHG3).
T1 construct: expressed in transfected cells; CHO is named only for the cAMP assay
T1 sequence (Q9JHG3 1-377): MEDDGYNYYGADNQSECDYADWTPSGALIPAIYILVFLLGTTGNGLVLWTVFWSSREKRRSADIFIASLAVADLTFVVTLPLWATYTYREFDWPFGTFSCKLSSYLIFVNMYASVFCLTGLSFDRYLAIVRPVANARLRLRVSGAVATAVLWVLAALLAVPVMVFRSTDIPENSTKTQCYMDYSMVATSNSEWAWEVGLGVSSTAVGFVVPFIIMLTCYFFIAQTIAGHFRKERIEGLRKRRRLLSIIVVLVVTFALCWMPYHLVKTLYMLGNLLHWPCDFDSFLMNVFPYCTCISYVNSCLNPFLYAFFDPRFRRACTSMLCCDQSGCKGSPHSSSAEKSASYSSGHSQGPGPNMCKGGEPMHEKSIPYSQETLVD
In words: [35S]GTPγS assay, membranes from stable cell lines, rat APJ. It counts as biochemical. The note with it: for in vitro potency relative to endogenous pyr apelin 13 (SEQ ID NO: 128) / in vitro potency, mono vs bis vs tetrakis 20 kDa PEG peptides: FIG. 11, in vitro rat GTPγS assay; for potency relative to monopeptide (SEQ ID NO: 494): FIG. 13, PEGylated bis-peptides on low molecular weight monodispersed PEG. How it is done:
To assay for GTP, membranes were prepared from stable cell lines and used to determine the efficacy/potency of the modified peptides. The optimal experimental conditions for the concentrations of GDP, MgCl2 and NaCl in the assay buffer were initially determined. The membranes were incubated with modified peptides in the assay buffer. The reaction was initiated by addition of [^35S] GTPγS in the absence or presence of peptides and incubated at room temperature for 90 min. […] Bound [^35S] GTPγS was separated from free radiolabel by filtration. The filter bound radioactivity was determined by liquid scintillation counting.
A series of PEGylated peptides were prepared and screened in vitro to explore the effects of PEG size and peptide valency on potency and efficacy in the GTPγS assay. In the assay 20 kDA and 40 kDA PEG were compared (FIG. 10).
Additionally mono- and multivalent bis, and tetrakis-peptide conjugated PEGS were prepared to explore peptide valency. […]
(GTPγS is a poorly hydrolysed GTP analogue; its binding reports G protein activation.)

Data set [3] can be described thus: FIGURE 4B. The text has this: Table printed on a drawing sheet, FIGURE 4B
Section band inside the table: Peptides with thioether linker and 20 kDa PEG modification
The patent's description of the figure: FIGS. 4A-B. In vitro stability of APJ agonists in plasma.
First reader's note: Rows 3 and 9 of the grid are section headings spanning all columns (linker type of the 20 kDa PEGylated peptides).

*1 amine or outer side, *2 acyl side, *3 side chain or, on linkers, in order; H or OH if unused. Where a SMILES comes first, the peptide text is derived from it. Primed or numbered codes have the meaning given here. Where no end group is shown, it is not given here. [ ]: non-standard residue; d: D form. Atz = (S)-2-amino-3-(1H-1,2,3-triazol-4-yl)propanoyl residue, substituent (PEG) on triazole N1, O=C([C@H](Cc1cn([*:3])nn1)N[*:1])[*:2]; Oic = O=C(O)[C@@H]1C[C@@H]2CCCC[C@@H]2N1; Phe(4-Cl) = N[C@@H](Cc1ccc(Cl)cc1)C(=O)O; 1Nal = N[C@@H](Cc1cccc2ccccc12)C(=O)O; hArg = N=C(N)NCCCC[C@H](N)C(=O)O; Cha = N[C@@H](CC1CCCCC1)C(=O)O; 40K‑mPEG = 40 kDa methoxy-PEG; pGlu = O=C1CC[C@@H](C(=O)O)N1; PEG11′ = not defined here; PEG23′ = not defined here; PEG35′ = not defined here; PEG47′ = not defined here; Nle = CCCC[C@H](N)C(=O)O

Data on 18 compounds can be found in US20160067347A1, “APJ RECEPTOR AGONISTS AND USES THEREOF” (AMGEN INC., priority 2012, published 2016).

For `CCCC[C@H](NC(=O)[C@@H]1CCCN1C(=O)CNC(=O)[C@H](CCCCN)NC(=O)[C@H](Cc1cn(CCOCCOCCOCCOCCOCCOCCOCCOCCOCCOCCN)nn1)NC(=O)[C@H](Cc1ccccc1)NC(=O)[C@H](CC(C)C)N(C)C(=O)[C@H](CCCCNC(=N)N)NC(=O)[C@@H]1CCCN1C(=O)[C@H](CCCNC(=N)N)NC(=O)[C@@H]1CCC(=O)N1)C(=O)N[C@H](Cc1ccccc1)C(=O)O` [compound 29], the fraction remaining at 1 h, 5 μM in data set [1] (plasma) was 50%. Regarding `CCCC[C@H](NC(=O)[C@@H]1CCCN1C(=O)CNC(=O)[C@H](CCCCN)NC(=O)[C@H](Cc1c[nH]cn1)NC(=O)[C@H](CO)NC(=O)[C@H](CC1CCCCC1)NC(=O)[C@H](CCCCNC(=N)N)NC(=O)[C@@H]1CCCN1C(=O)[C@H](CCCNC(=N)N)NC(=O)[C@@H]1CCC(=O)N1)C(=O)N[C@@H](Cc1cccc2ccccc12)C(=O)O` [compound 31] ([pGlu]RP[hArg][Cha]SHKGP[Nle][1Nal]-OH; C-terminus assumed), the share remaining at 1 h, 5 μM in data set [1] (rat EDTA plasma) is 63%. In the case of `CCCC[C@H](NC(=O)[C@@H]1CCCN1C(=O)CNC(=O)[C@H](CCCCN)NC(=O)[C@H](Cc1c[nH]cn1)NC(=O)[C@H](CO)NC(=O)[C@H](CC1CCCCC1)NC(=O)[C@H](CCCCNC(=N)N)NC(=O)[C@@H]1CCCN1C(=O)[C@H](CCCNC(=N)N)NC(=O)[C@@H]1CCC(=O)N1)C(=O)N[C@@H](Cc1ccc(Cl)cc1)C(=O)O` [compound 32] ([pGlu]RP[hArg][Cha]SHKGP[Nle][Phe(4-Cl)]-OH; C-terminus assumed), in data set [1] (rat EDTA plasma), the fraction remaining at 1 h, 5 μM amounted to 64.6%. As for `CCCC[C@H](NC(=O)[C@@H]1C[C@@H]2CCCC[C@@H]2N1C(=O)CNC(=O)[C@H](CCCCN)NC(=O)[C@H](Cc1cn(CCOCCOCCOCCOCCOCCOCCOCCOCCOCCOCCN)nn1)NC(=O)[C@H](Cc1ccccc1)NC(=O)[C@H](CC1CCCCC1)NC(=O)[C@H](CCCCNC(=N)N)NC(=O)[C@@H]1CCCN1C(=O)[C@H](CCCNC(=N)N)NC(=O)[C@@H]1CCC(=O)N1)C(=O)N[C@H](Cc1ccccc1)C(=O)O` [compound 33], in data set [1] (plasma), the share remaining at 1 h, 5 μM was determined as 66%. As for `CCCC[C@H](NC(=O)[C@@H]1C[C@@H]2CCCC[C@@H]2N1C(=O)CNC(=O)[C@H](CCCCN)NC(=O)[C@H](Cc1c[nH]cn1)NC(=O)[C@H](Cc1cn(CCOCCOCCOCCOCCOCCOCCOCCOCCOCCOCCN)nn1)NC(=O)[C@H](CC1CCCCC1)NC(=O)[C@H](CCCCNC(=N)N)NC(=O)[C@@H]1CCCN1C(=O)[C@H](CCCNC(=N)N)NC(=O)[C@@H]1CCC(=O)N1)C(=O)N1CCC[C@H]1C(=O)N[C@@H](Cc1ccc(Cl)cc1)C(=O)O` [compound 34], the fraction remaining at 1 h, 5 μM in data set [1] (plasma) was 72%. As for `CCCC[C@H](NC(=O)[C@@H]1C[C@@H]2CCCC[C@@H]2N1C(=O)CNC(=O)[C@H](CCCCN)NC(=O)[C@H](Cc1c[nH]cn1)NC(=O)[C@H](Cc1cn(CCOCCOCCOCCOCCOCCOCCOCCOCCOCCOCCN)nn1)NC(=O)[C@H](CC(C)C)N(C)C(=O)[C@H](CCCCNC(=N)N)NC(=O)[C@@H]1CCCN1C(=O)[C@H](CCCNC(=N)N)NC(=O)[C@@H]1CCC(=O)N1)C(=O)N[C@@H](Cc1ccc(Cl)cc1)C(=O)O` [compound 35], the fraction remaining at 1 h, 5 μM in data set [1] (plasma) was found to be 82%.

Consider `CCCC[C@H](NC(=O)[C@@H]1C[C@@H]2CCCC[C@@H]2N1C(=O)CNC(=O)[C@H](CCCCN)NC(=O)[C@H](Cc1c[nH]cn1)NC(=O)[C@H](Cc1cn(CCOCCOCCOCCOCCOCCOCCOCCOCCOCCOCCN)nn1)NC(=O)[C@H](CC(C)C)N(C)C(=O)[C@H](CCCCNC(=N)N)NC(=O)[C@@H]1CCCN1C(=O)[C@H](CCCNC(=N)N)NC(=O)[C@@H]1CCC(=O)N1)C(=O)N1CCC[C@H]1C(=O)N[C@@H](Cc1ccc(Cl)cc1)C(=O)O` [compound 36], for which the fraction remaining at 1 h, 5 μM in data set [1] (plasma) came to 88%. With “SEQ ID NO: 129: 20 kDa PEG-mono(Atz-KFRRQRP[hArg][Cha]SHKG[Oic][Nle]P[4-Cl—F]) (XKFRRQRPRLSHKGPMPF; not fully specified; 20 kDa PEG, Atz linker; non-natural residues; source: /note="N-term may or may not be modified by conjugation linker, an acyl group, an aryl group, an alkyl group, NPeg11, a PEG derivative or other serum half-life prolonging group"; MOD_RES (1)..(1): Atz)”, in data set [2], the “in vitro potency relative to endogenous pyr apelin 13 (SEQ ID NO: 128)” value is “significantly more potent” and the “in vitro potency, mono vs bis vs tetrakis 20 kDa PEG peptides” value (“in vitro potency, mono vs bis” for short) is recorded as “approximately equipotent”.

As for “SEQ ID NO: 130: 20 kDa PEG-bis(Atz-KFRRQRP[hArg][Cha]SHKG[Oic][Nle]P[4-Cl—F]) (KFRRQRP[hArg][Cha]SHKG[Oic][Nle]P[Phe(4-Cl)]; not fully specified (N-terminus); also: 20 kDa PEG carries two peptide copies)”, in data set [2], the “in vitro potency relative to endogenous pyr apelin 13 (SEQ ID NO: 128)” value is “significantly more potent” and the “in vitro potency, mono vs bis” value was “approximately equipotent”.

With “SEQ ID NO: 131: 20 kDa PEG-tetrakis(Atz-KFRRQRP[hArg][Cha]SHKG[Oic][Nle]P[4-Cl—F]) (KFRRQRP[hArg][Cha]SHKG[Oic][Nle]P[Phe(4-Cl)]; not fully specified (N-terminus); also: 20 kDa PEG carries four peptide copies)”, in data set [2], the “in vitro potency relative to endogenous pyr apelin 13 (SEQ ID NO: 128)” value is recorded as “significantly more potent” and the “in vitro potency, mono vs bis” value is reported as “approximately equipotent”.

Consider “SEQ ID NO: 133: PEGylated bis-peptide, the shortest PEG conjugate (~0.6 kDa PEG) ([PEG11′][Atz]KFRRQRP[hArg][Cha]SHKG[Oic][Nle]P[Phe(4-Cl)]; not fully specified (residue 1); numbers in words are those of the source; also: bis-peptide: two peptide chains joined through PEG11 on Atz)”, for which the “potency relative to monopeptide (SEQ ID NO: 494)” value in data set [2] is recorded as “reduced potency”. Take “SEQ ID NO: 134: PEGylated bis-peptide, 1 kDa PEG conjugate ([PEG23′][Atz]KFRRQRP[hArg][Cha]SHKG[Oic][Nle]P[Phe(4-Cl)]; not fully specified (residue 1); numbers in words are those of the source; also: bis-peptide: two peptide chains joined through PEG23 on Atz)”: the “potency relative to monopeptide (SEQ ID NO: 494)” value in data set [2] is listed as “increased potency”. On the same count and under the same terms, in the case of “SEQ ID NO: 135: PEGylated bis-peptide, 1.7 kDa PEG conjugate ([PEG35′][Atz]KFRRQRP[hArg][Cha]SHKG[Oic][Nle]P[Phe(4-Cl)]; not fully specified (residue 1); numbers in words are those of the source; also: bis-peptide: two peptide chains joined through PEG35 on Atz)” it was “increased potency”. As for “SEQ ID NO: 136: PEGylated bis-peptide, 2.2 kDa PEG conjugate ([PEG47′][Atz]KFRRQRP[hArg][Cha]SHKG[Oic][Nle]P[Phe(4-Cl)]; not fully specified (residue 1); numbers in words are those of the source; also: bis-peptide: two peptide chains joined through PEG47 on Atz)”, the “potency relative to monopeptide (SEQ ID NO: 494)” value in data set [2] was “increased potency”.

For the compound “SEQ ID NO: 474: 40 Kda PEGylated peptide compared with the 20 kDa PEGylated peptide SEQ ID NO: 24 ({40K‑mPEG-Thiopropionyl}-KFRRQRP[hArg][Cha]SHKG[Oic][Nle]P[Phe(4-Cl)]-OH)”, the “Emax relative to the 20 kDa PEGylated peptide” value in data set [2] (FIG. 10) is given as 84 % of 20 kDa. “Thiopropionyl(20K-mPEG)- KFRRQRP[hArg][Cha]SHKG[Oic][Nle]P[4-Cl-F] [compound 44]”: in data set [3], the “in vitro plasma stability (t1/2, min) | DOG” value stood at 172 min; the “in vitro plasma stability (t1/2, min) | HUMAN” value worked out at 142 min; the “in vitro plasma stability (t1/2, min) | MOUSE” value turned out to be 37 min; the “in vitro plasma stability (t1/2, min) | RAT” value is 180 min. “Thiopropionyl(20K-mPEG)- QRP[hArg][Cha]SHKG[Oic][Nle]P[4-Cl-F] [compound 48]”: in data set [3], the “in vitro plasma stability (t1/2, min) | DOG” value was 219 min; the “in vitro plasma stability (t1/2, min) | HUMAN” value is 307 min; the “in vitro plasma stability (t1/2, min) | MOUSE” value is on record as 53 min; the “in vitro plasma stability (t1/2, min) | RAT” value was 303 min.

Turning to “Thiopropionyl(20K-mPEG)- RQRP[hArg][Cha]SHKG[Oic][Nle]P[4-Cl-F] [compound 47]”, in data set [3], the “in vitro plasma stability (t1/2, min) | DOG” value is on record as 279 min; the “in vitro plasma stability (t1/2, min) | HUMAN” value turned out to be 300 min; the “in vitro plasma stability (t1/2, min) | MOUSE” value turned out to be 41 min.

What is called amount remaining is what is left of the initial amount, in per cent. Read a high amount remaining as less turnover.
